These results are taken from paper PMC3828196 (PLoS ONE, 2013).

Where “and” joins values, the source holds several entries; their conditions need not be identical. Identical values can stand only once. Entries after “also recorded” stand apart in the source; their conditions may differ. Like-named read-outs stand apart in the source and are kept apart here.

Data set [1] addresses T1, Cys30 (UniProt position 49, FFSFYCPHCYQ). Description: UV-vis. Conditions: 22 °C; 200 mM KCl plus buffer salts (total ionic strength not stated); 10 mM Tris, 10 mM sodium citrate, 10 mM K2HPO4, 10 mM KH2PO4, 200 mM KCl, 1 mM EDTA; Reduced KpDsbA (40 μM), with oxidised KpDsbA as reference.
For data set [2], the target named is Klebsiella pneumoniae DsbA (K. pneumoniae). As to the kind of experiment: ITC; peptide (3 mM) titrated into 100 μM DsbA in the cell; 25 mM HEPES, 50 mM NaCl, pH 7.4, DMSO 0.8 %; 25 °C by the methods (20 °C by the footnote of Table 4); single-site binding model; apparent Kd; triplicate. A general note: ITC needs no label: the signal is the heat of the interaction.

Another data set addresses KpDsbA. Description: ITC binding of DsbB-derived peptides to KpDsbA. Also on record: species or system K. pneumoniae. As to the method: Amidation and acetylation ensure that there are no charges on the peptide termini, as these are not present in the native DsbB loop sequence. Binding affinity was measured using a MicroCal™ Auto-iTC200 from (GE Healthcare, USA) at 25 °C. The sample cell was loaded with 200 μL of 100 μM KpDsbA or EcDsbA in 25 mM HEPES, 50 mM NaCl, pH 7.4, and DMSO 0.8 %. The peptide (3 mM) diluted in the same buffer was titrated with an initial injection of 0.5 μL into DsbA, followed by 19 consecutive injections (2.0 μL) offset by 180 s, while the solution was constantly stirred (1000 rpm). Data were fitted to a single-site binding model using MicroCal™ Origin 7.0 software (Origin 7 SR4 v7.0552). Experiments were conducted in triplicate and affinity and thermodynamic parameters are reported as means and standard deviations (Table 4).

Data set [3] concerns the target Cys30 (UniProt position 49, FFSFFCPHCYQ). Conditions: not stated; cited from earlier work.
Data set [4] deals with Cys30 (UniProt position 49, FFSFYCPHCNT). Conditions: not stated; cited from earlier work.
The target of data set [5] is T1, Cys30. The conditions noted are these: not stated; cited from earlier work.
The next data set has as its target T2, Escherichia coli DsbA (E. coli, UniProt P0AEG4 20-208).
T2 construct: also called EcDsbA; E. coli DsbA; source: purified as described for KpDsbA (BL21(DE3)pLys, Talon resin, TEV protease, Superdex75)
T2 sequence (looked up): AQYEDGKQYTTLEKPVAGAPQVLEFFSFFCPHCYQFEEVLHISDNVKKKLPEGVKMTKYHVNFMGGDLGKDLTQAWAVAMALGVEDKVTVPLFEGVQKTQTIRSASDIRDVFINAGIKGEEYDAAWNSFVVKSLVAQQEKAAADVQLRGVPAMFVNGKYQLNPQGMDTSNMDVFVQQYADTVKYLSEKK
Description: ITC; peptide (3 mM) titrated into 100 μM DsbA in the cell; 25 mM HEPES, 50 mM NaCl, pH 7.4, DMSO 0.8 %; 25 °C by the methods (20 °C by the footnote of Table 4); single-site binding model; apparent Kd; triplicate. Conditions: both partners purified.

The conditions of data set [6]: SeDsbA, cited from earlier work. The text has this: The past 5 years has seen the characterization of DsbA enzymes from many other bacteria including DsbAs with varying degrees of sequence identity to EcDsbA such as Neisseria meningitidis DsbA1 (NmDsbA1, 23% identity), Pseudomonas aerugin ... || EcDsbA and SeDsbA share 86 % sequence identity and both have been characterized previously. […] Both are similarly oxidizing enzymes: the redox potentials of EcDsbA and SeDsbA are -122 and -126 mV, respectively, whereas the range for all DsbAs is -80 to -163 mV (Table 1 ). In b ... || (+ 1 further places)

Data set [7] in a line: In vitro peptide dithiol oxidation (europium fluorescence). Format: biochemical. Conditions: pH 5.5. The method, then:
A peptide ([…]) with a 1,4,7,10-tetraazacyclododecane-1,4,7,10-tetraacetic acid (DOTA) group amide-coupled to the N-terminus, and a methylcoumarin amide-coupled to the ε-amino group of the C-terminal lysine, was purchased from AnaSpec (Fremont, CA). Lyophilized peptide was re-suspended in 100 mM imidazole, pH 6, at a concentration of 2 mM. Europium trifluoromethanesulfonate (Sigma Aldrich, Australia) solution (100 mM) was added to the peptide at a molar ratio of 2:1 and incubated for 5 min at room temperature, to allow europium chelation. The peptide solution was then immediately aliquoted, flash frozen in liquid nitrogen and stored at -80°C. An increase in fluorescence occurs upon oxidation of the peptide cysteines to form a disulfide. Thus, fluorescence can be used to monitor the capacity of DsbA enzymes to catalyse dithiol oxidation.
Assays were conducted using a Synergy H1 multimode plate reader (BioTek, USA) with the excitation wavelength set to 340 nm and emission to 615 nm. A 150 μs delay before reading and 100 μs reading time were used for time-resolved fluorescence. The assay was performed in a white 384-well plate (Perkin Elmer OptiPlate-384, Part #: 6007290). The buffer consisted of 50 mM MES, 50 mM NaCl and 2 mM EDTA at pH 5.5. The reaction consisted of a 50 μL solution in each well, containing 160 nM EcDsbA, KpDsbA or SeDsbA, 1.6 μM EcDsbB (crude membrane extracts, containing ubiquinone) and 8 μM peptide substrate added last to initiate the reaction. Samples containing buffer and DsbA or buffer and peptide were used as controls. Data were measured for three replicates and are presented as mean values, with the standard error of the mean indicated by error bars.

In data set [8] the test system is insulin. Conditions: cited from earlier work.
Data set [9] is described as follows: Temperature-induced unfolding by far-UV CD. The data set is classed as physicochemical. As to the method: Temperature-induced unfolding of native SeDsbA and KpDsbA was determined as described previously using a Jasco J-810 circular dichroism (CD) spectropolarimeter (Jasco, USA). The redox state of the protein was confirmed using Ellman’s reagent. The largest difference in molar ellipticity for oxidized or reduced enzymes was calculated from initial far-UV CD spectra (from 250 nm to 190 nm) recorded at 25 °C and 95 °C, respectively. The unfolding of oxidized and reduced protein (SeDsbAox = 220 nm, SeDsbAred = 220.5 nm and KpDsbAox = 211 nm, KpDsbAred = 209.5 nm) was monitored at a heat rate of 1 K / min from 298 K to 368 K in a 1 mm quartz cuvette. All measurements were carried out with 10 µM protein in 100 mM NaH2PO4 / Na2HPO4, 1 mM EDTA at pH 7.0. Samples for measurement of reduced enzyme contained 0.75 mM DTT. Raw data were analyzed in Prism and fitted to a two-state unfolding model as described previously. The standard deviation was measured from three replicates.

In data set [10] the test system is E. coli dsbA- null (JCB817). Conditions: SeDsbA, null mutant motility assay; ref [44]; cited from earlier work.
For data set [11], the system named is insulin. As to the kind of experiment: Insulin disulfide reductase activity. The conditions noted are these: 10 μM enzyme, 0.33 mM DTT, 2 mM EDTA, 100 mM phosphate pH 7.0, 0.131 mM insulin; OD650nm turbidity; three repeats. The data set is classed as biochemical. The method, then:
Under mild reducing conditions, DsbA proteins can reduce the intermolecular disulfide bonds formed between insulin chains A and B [3]. The rate of disulfide bond reduction can be spectroscopically followed at OD650nm by an increase in turbidity resulting from production of the insoluble insulin chain B [20]. Samples were prepared in 1 cm cuvettes containing 10 μM of protein (KpDsbA, EcDsbA or EcDsbC), 0.33 mM DTT and 2 mM EDTA in 100 mM NaH2PO4 / Na2HPO4 titrated to pH 7.0. Catalysis was initiated by the addition of 0.131 mM insulin (I0516, Sigma-Aldrich, Australia) to the sample mixture. The assay was repeated three times and data were plotted showing standard deviations.

On to “DsbA (thiol:disulfide interchange protein DsbA), KpDsbA (Klebsiella pneumoniae (strain 342))”, for which the pKa in the data set with Cys30 [1] is reported as 3.2.
As for EcDsbB P2 loop peptide PSPFATCD, in data set [2], the Kd came to 17.9 µM, the dH was -39.7 kJ/mol and the stoichiometry N amounted to 0.93.
`CC(=O)N1CCC[C@H]1C(=O)N[C@@H](CO)C(=O)N1CCC[C@H]1C(=O)N[C@@H](Cc1ccccc1)C(=O)N[C@@H](C)C(=O)N[C@H](C(=O)N[C@@H](CS)C(=O)N[C@@H](CC(=O)O)C(N)=O)[C@@H](C)O`: the Kd at KpDsbA (ITC (Auto-iTC200), cell 100 μM KpDsbA, peptide 3 mM, 25 mM HEPES, 50 mM NaCl, pH 7.4, DMSO 0.8 %, 25 °C in method, 20 °C in table footnote, single-site model, apparent Kd, mean ± SD, three independent experiments, read-out: Kd) is 17.9 ± 1.5 µM; on KpDsbA (ITC, range stated for KpDsbA and EcDsbA with PSPFATCD and PSPFQTCD together, read-out: Kd (range over both peptides and both DsbAs)), 11 to 18 µM.
On to KpDsbB P2 loop peptide PSPFQTCD, for which, in data set [2], the Kd was 16.7 µM, the dH was -46.4 kJ/mol and the stoichiometry N turned out to be 0.97.
With DsbA (EcDsbA) (Escherichia coli (K-12)), the pKa with Cys30 [3] is listed as 3.3.
With DsbA (VcDsbA, TcpG) (Vibrio cholerae), the pKa with Cys30 [4] is listed as 5.1.
Consider “DsbA (SeDsbA) (Salmonella enterica serovar Typhimurium (strain SL1344))”, for which, in the data set with Cys30 [5], the pKa was 3.3.

B1: KpDsbB P2 loop peptide PSPFQTCD (peptide)
peptide: Ac-PSPFQTCD-NH2
notes: P2 loop of K. pneumoniae DsbB; source: synthetic peptide
B1: in the data set with Escherichia coli DsbA, the Kd came out at 10.9 µM.

B2: SeDsbA: S. enterica Typhimurium DsbA (AAB81592) (protein)
chain: AQISDGKQYITLDKPVAGEPQVLEFFSFYCPHCYQFEEVLHVSDNVKKKLPEGTKMTKYHVEFLGPLGKELTQAWAVAMALGVEDKVTVPLFEAVQKTQTVQSAADIRKVFVDAGVKGEDYDAAWNSFVVKSLVAQQEKAAADLQLQGVPAMFVNGKYQINPQGMDTSSMDVFVQQYADTVKYLVDKK
modifications: left off: His6 (inferred: purified as described for KpDsbA), N-terminal, cleaved
As to B2, the “E°’ (redox potential)” value in data set [6] (Table 1, ref [43] and [14]) is -126 mV. In addition, the “pKa “Cys30”” value in data set [6] (Table 1 and comparison, ref [43] and [14]) is on record as 3.3. In data set [6] (ref [43]), the “pKa of nucleophilic cysteine” value is 3.3 and the redox potential is reported as -126 mV. For the same molecule, the “dithiol oxidation signal without EcDsbB” value in data set [7] (samples lacking EcDsbB, DsbA plus peptide, time-resolved fluorescence) was “no increase in signal”. Also, in [7] (with EcDsbB, 160 nM DsbA, 1.6 μM EcDsbB membrane extract, 8 μM peptide, 50 mM MES, 50 mM NaCl, 2 mM EDTA, time-resolved fluorescence 340/615 nm, three replicates), the “rate of catalyzed disulfide bond formation” value is “almost indistinguishable from that of EcDsbA”. Further, the insulin reductase activity result in the data set on insulin [8] is reported as “weak disulfide reductants; also recorded: weak insulin reductase activity”. In data set [9] (10 µM protein, 100 mM phosphate, 1 mM EDTA, pH 7.0, 0.75 mM DTT, 1 K/min 298-368 K, SeDsbA 220.5 nm, KpDsbA 209.5 nm, two-state fit, SD from three replicates), the Tm reduced is 351 K and 351.2 ± 0.2 K and 351.2 +/- 0.2 K. In addition, the Tm oxidized in data set [9] (10 µM protein, 100 mM phosphate, 1 mM EDTA, pH 7.0, 1 K/min 298-368 K, SeDsbA 220 nm, KpDsbA 211 nm, two-state fit, SD from three replicates) is 342.8 ± 0.4 K and 342.8 +/- 0.4 K and 343 K. Also, the “stabilisation of reduced over oxidized form” value in [9] (SeDsbA, difference of melting temperatures) was 9 K. For the same molecule, the “complementation of EcDsbA, motility” value in data set [10] was “can complement EcDsbA; also recorded: can fully restore the motility of dsbA ^- deficient strains”.

B3: EcDsbC: E. coli disulfide isomerase DsbC (AAA83074) (protein, UniProt P0AEG6 21-236, looked up)
Thiol:disulfide interchange …: DDAAIQQTLAKMGIKSSDIQPAPVAGMKTVLTNSGVLYITDDGKHIIQGPMYDVSGTAPVNVTNKMLLKQLNALEKEMIVYKAPQEKHVITVFTDITCGYCHKLHEQMADYNALGITVRYLAFPRQGLDSDAEKEMKAIWCAKDKNKAFDDVMAGKSVAPASCDVDIADHYALGVQLGVSGTPAVVLSNGTLVPGYQPPKEMKEFLDEHQKMTSGK
Regarding B3, the “insulin disulfide reductase activity” value in the data set with insulin [11] is given as “highly active”.

In general, pKa refers to the pH at which an ionisable group is half protonated. The term stoichiometry N denotes a count of units in the complex or per binding partner.
